According to paper doi:10.1101/2021.09.28.462122:

Target: NADP+-specific glutamate dehydrogenase from Aspergillus terreus (Aspergillus terreus)
Test: crystal structure

NADP+-specific glutamate dehydrogenase from Aspergillus terreus (enzyme)
stoichiometry N: 6
